Measurements from the supplement of paper PMC10724198.
± gives the standard deviation of the averaged measurements.

Test system: Saccharomyces cerevisiae
Assay: protein stability index of tFT-peptide fusion (C-terminal peptide) (PSI (0-1 scale)); higher = more stable (slower turnover)
Conditions: temperature: 30 C
Protocol: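 MPS profiling in S. cerevisiae of the yeast C-terminome library: the last 12 aa of each annotated ORF are fused to the C-terminus of a sfGFP-mCherry timer, after a GGGS linker. Cells are FACS-sorted into 8 mCherry/sfGFP bins and deep-sequenced. PSI runs from 0 (unstable) to 1 (stable); wild type and das1Δ backgrounds, two technical replicates each.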

[1] = genetic background: das1 deletion

FVKTIADTLSFS [PRR1 C-terminal 12 aa]
protein stability index [1]: 0.6997 ± 0.0036
protein stability index (genetic background: wild type): 0.7061 ± 0.0011

LADSKHCSGLHK [ASF2 C-terminal 12 aa]
protein stability index [1]: 0.6837 ± 0.0028
protein stability index (genetic background: wild type): 0.703 ± 0.0086

NKVDINMEQEKF [UGO1 C-terminal 12 aa]
protein stability index [1]: 0.699 ± 0.043
protein stability index (genetic background: wild type): 0.651 ± 0.027

TLKSTSSTNSPD [SMP1 C-terminal 12 aa]
protein stability index [1]: 0.703 ± 0.011
protein stability index (genetic background: wild type): 0.6844 ± 0.006

DWLIDVIKEEQL [ARL1 C-terminal 12 aa]
protein stability index [1]: 0.728 ± 0.051
protein stability index (genetic background: wild type): 0.695 ± 0.028

TKPNNGLNITNY [MTL1 C-terminal 12 aa]
protein stability index [1]: 0.689 ± 0.019
protein stability index (genetic background: wild type): 0.716 ± 0.046

FQPLLKKNQVGY [THI3 C-terminal 12 aa]
protein stability index [1]: 0.704 ± 0.028
protein stability index (genetic background: wild type): 0.693 ± 0.012

TGFKDKFLDALL [PUT4 C-terminal 12 aa]
protein stability index [1]: 0.689 ± 0.014
protein stability index (genetic background: wild type): 0.69 ± 0.011

EPRYNDDAQVSD [KCS1 C-terminal 12 aa]
protein stability index [1]: 0.684 ± 0.018
protein stability index (genetic background: wild type): 0.663 ± 0.064

DEQGNELSPRNY [MID2 C-terminal 12 aa]
protein stability index [1]: 0.69199 ± 0.00026
protein stability index (genetic background: wild type): 0.723 ± 0.035

EIKHVFTGVYGG [ASP1 C-terminal 12 aa]
protein stability index [1]: 0.68 ± 0.006
protein stability index (genetic background: wild type): 0.686 ± 0.0042

APTPEACESCSG [RNR3 C-terminal 12 aa]
protein stability index [1]: 0.696 ± 0.01
protein stability index (genetic background: wild type): 0.6947 ± 0.003

KWVGQYPVPGDI [SHM1 C-terminal 12 aa]
protein stability index [1]: 0.693 ± 0.0071
protein stability index (genetic background: wild type): 0.687 ± 0.04

SGFQFPFFGEEK [MRPL7 C-terminal 12 aa]
protein stability index [1]: 0.717 ± 0.014
protein stability index (genetic background: wild type): 0.695 ± 0.037

EPAYDGASVEQQ [THR1 C-terminal 12 aa]
protein stability index [1]: 0.688 ± 0.0074
protein stability index (genetic background: wild type): 0.6724 ± 0.0055

KISFKWKKQRKR [UTP11 C-terminal 12 aa]
protein stability index [1]: 0.71 ± 0.01
protein stability index (genetic background: wild type): 0.655 ± 0.015

FADKIKPTKVAE [MCK1 C-terminal 12 aa]
protein stability index [1]: 0.693 ± 0.015
protein stability index (genetic background: wild type): 0.691 ± 0.023

KLRAKRLAKGGR [RPG1 C-terminal 12 aa]
protein stability index [1]: 0.696 ± 0.012
protein stability index (genetic background: wild type): 0.705 ± 0.011

CKQNSNCEYLYM [YOR365C C-terminal 12 aa]
protein stability index [1]: 0.682 ± 0.012
protein stability index (genetic background: wild type): 0.699 ± 0.012

LWDNKPVEKKRQ [SHH4 C-terminal 12 aa]
protein stability index [1]: 0.712 ± 0.023
protein stability index (genetic background: wild type): 0.72 ± 0.027

DEEKQLSLSDMI [YOR186W C-terminal 12 aa]
protein stability index [1]: 0.692 ± 0.03
protein stability index (genetic background: wild type): 0.672 ± 0.019

GKSHPFHSSDRY [YJL211C C-terminal 12 aa]
protein stability index [1]: 0.6884 ± 0.0033
protein stability index (genetic background: wild type): 0.699 ± 0.023

WYLQSVNLRDGV [HOL1 C-terminal 12 aa]
protein stability index [1]: 0.6852 ± 0.005
protein stability index (genetic background: wild type): 0.688 ± 0.035

PSYAKVQEFATP [NEO1 C-terminal 12 aa]
protein stability index [1]: 0.71 ± 0.0097
protein stability index (genetic background: wild type): 0.684 ± 0.0059

LNELGEFKVINS [NPR2 C-terminal 12 aa]
protein stability index [1]: 0.689 ± 0.014
protein stability index (genetic background: wild type): 0.6914 ± 0.0059

AFMMICEKLITL [SEC59 C-terminal 12 aa]
protein stability index [1]: 0.7062 ± 0.0011
protein stability index (genetic background: wild type): 0.5394 ± 0.0032

YKTKYIWERLGK [SPC24 C-terminal 12 aa]
protein stability index [1]: 0.69 ± 0.012
protein stability index (genetic background: wild type): 0.694 ± 0.029

QKRIQRKKMNEM [AIM23 C-terminal 12 aa]
protein stability index [1]: 0.71243 ± 0.0002
protein stability index (genetic background: wild type): 0.663 ± 0.014

YVFIVNHAAEQT [NUP116 C-terminal 12 aa]
protein stability index [1]: 0.677 ± 0.024
protein stability index (genetic background: wild type): 0.659 ± 0.009

ADVRYPNIDDYL [HCS1 C-terminal 12 aa]
protein stability index [1]: 0.73454 ± 6.5e-05
protein stability index (genetic background: wild type): 0.713 ± 0.048

SSVKKKLYPKSK [RIM11 C-terminal 12 aa]
protein stability index [1]: 0.704 ± 0.015
protein stability index (genetic background: wild type): 0.693 ± 0.073

RMVDKVEGSFSR [YDR109C C-terminal 12 aa]
protein stability index [1]: 0.7218 ± 0.0071
protein stability index (genetic background: wild type): 0.701 ± 0.028

PLMTVLGLEKKK [DPC13 C-terminal 12 aa]
protein stability index [1]: 0.703 ± 0.021
protein stability index (genetic background: wild type): 0.675 ± 0.064

SAMTSKVLSFFL [RRT7 C-terminal 12 aa]
protein stability index [1]: 0.7094 ± 0.0069
protein stability index (genetic background: wild type): 0.696 ± 0.019

ITSKPPATVEWE [GUA1 C-terminal 12 aa]
protein stability index [1]: 0.695 ± 0.01
protein stability index (genetic background: wild type): 0.726 ± 0.015

RKNNKKSISYYG [YOR203W C-terminal 12 aa]
protein stability index [1]: 0.706 ± 0.011
protein stability index (genetic background: wild type): 0.731 ± 0.0063

RKRLRTLDNWYR [RNH201 C-terminal 12 aa]
protein stability index [1]: 0.7355 ± 0.0016
protein stability index (genetic background: wild type): 0.7169 ± 0.0049

VSLKKGKLKAHC [YAP7 C-terminal 12 aa]
protein stability index [1]: 0.673 ± 0.016
protein stability index (genetic background: wild type): 0.692 ± 0.019

LKRISDIQADSS [PET494 C-terminal 12 aa]
protein stability index [1]: 0.692 ± 0.031
protein stability index (genetic background: wild type): 0.6987 ± 0.0012

VDAKIKKQMNRH [YJR124C C-terminal 12 aa]
protein stability index [1]: 0.694 ± 0.011
protein stability index (genetic background: wild type): 0.682 ± 0.0093

QNDRRSVLKKYI [YER010C C-terminal 12 aa]
protein stability index [1]: 0.69 ± 0.025
protein stability index (genetic background: wild type): 0.666 ± 0.021

LEKLLKTVLNTL [ORC2 C-terminal 12 aa]
protein stability index [1]: 0.69009 ± 0.00049
protein stability index (genetic background: wild type): 0.696 ± 0.028

VDYKTEPLQPLI [RGI2 C-terminal 12 aa]
protein stability index [1]: 0.7 ± 0.022
protein stability index (genetic background: wild type): 0.678 ± 0.0079

YSIEVVPHGLIA [GLO1 C-terminal 12 aa]
protein stability index [1]: 0.607 ± 0.0097
protein stability index (genetic background: wild type): 0.5946 ± 0.0015

LDISASLEKIAT [FMP52 C-terminal 12 aa]
protein stability index [1]: 0.677 ± 0.018
protein stability index (genetic background: wild type): 0.682 ± 0.011

SGSRVVRKLFEL [FUS2 C-terminal 12 aa]
protein stability index [1]: 0.6964 ± 0.0031
protein stability index (genetic background: wild type): 0.7 ± 0.016

LDDIEKDLRANA [SWI4 C-terminal 12 aa]
protein stability index [1]: 0.7 ± 0.021
protein stability index (genetic background: wild type): 0.679 ± 0.012

PPASESNKGINE [YDR008C C-terminal 12 aa]
protein stability index [1]: 0.694 ± 0.013
protein stability index (genetic background: wild type): 0.661 ± 0.032

LGSSMVQGRSIR [YPK1 C-terminal 12 aa]
protein stability index [1]: 0.71 ± 0.024
protein stability index (genetic background: wild type): 0.661 ± 0.0085

DVYVLFYERVYD [UBP7 C-terminal 12 aa]
protein stability index [1]: 0.682 ± 0.036
protein stability index (genetic background: wild type): 0.682 ± 0.03

VQHDPSVHTNQL [MAE1 C-terminal 12 aa]
protein stability index [1]: 0.6923 ± 0.0028
protein stability index (genetic background: wild type): 0.664 ± 0.029

QSTAVFFTNKTD [YER076W-A C-terminal 12 aa]
protein stability index [1]: 0.707 ± 0.018
protein stability index (genetic background: wild type): 0.684 ± 0.046

DQFQKVEKSIVK [RRF1 C-terminal 12 aa]
protein stability index [1]: 0.69 ± 0.02
protein stability index (genetic background: wild type): 0.675 ± 0.061

KKLAKSGIEFKW [NOP15 C-terminal 12 aa]
protein stability index [1]: 0.704 ± 0.018
protein stability index (genetic background: wild type): 0.684 ± 0.063

FVLPTWAAKELN [SPE3 C-terminal 12 aa]
protein stability index [1]: 0.7195 ± 0.0063
protein stability index (genetic background: wild type): 0.69 ± 0.03

NKKRLSVDYILT [USV1 C-terminal 12 aa]
protein stability index [1]: 0.689 ± 0.05
protein stability index (genetic background: wild type): 0.679 ± 0.022

NDEEKQALAEKA [YLR297W C-terminal 12 aa]
protein stability index [1]: 0.683 ± 0.011
protein stability index (genetic background: wild type): 0.6834 ± 0.0067

LRSKVKNHAQRH [YLR428C C-terminal 12 aa]
protein stability index [1]: 0.714 ± 0.018
protein stability index (genetic background: wild type): 0.693 ± 0.021

KQSKKKTSFTRF [YBL028C C-terminal 12 aa]
protein stability index [1]: 0.699 ± 0.036
protein stability index (genetic background: wild type): 0.66155 ± 0.00019

ESDHPTLADNSV [MRL1 C-terminal 12 aa]
protein stability index [1]: 0.6955 ± 0.0041
protein stability index (genetic background: wild type): 0.6912 ± 0.00095

DDDDDGPYADDS [GSY2 C-terminal 12 aa]
protein stability index [1]: 0.707 ± 0.0079
protein stability index (genetic background: wild type): 0.706 ± 0.019
